Assay results from article PMC10599630, “Human interleukin-12α and EBI3 are cytokines with anti-inflammatory functions” (Science Advances, 2023).

T1: EBI3 (purified from Expi293) (human, UniProt Q14213 21-229)
T1 construct: human EBI3, UniProt Q14213; untagged; Untagged; pHEK293 ultra expression vector 1; also called recombinant human EBI3; source: Expi293, co-transfected with IL-27α^L162C,His
T1 sequence (looked up): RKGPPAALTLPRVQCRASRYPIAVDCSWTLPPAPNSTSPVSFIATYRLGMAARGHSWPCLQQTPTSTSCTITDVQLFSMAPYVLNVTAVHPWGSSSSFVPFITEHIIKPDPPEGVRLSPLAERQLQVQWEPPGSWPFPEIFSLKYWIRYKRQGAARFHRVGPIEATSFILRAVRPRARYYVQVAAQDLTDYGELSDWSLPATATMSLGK

T2: recombinant human IL-12β^C199S (previously purified) (human, UniProt P29460 23-328, C199S)
T2 construct: human interleukin-12 subunit beta (IL-12β/p40), UniProt P29460, with C199S; it may be the same construct as m7; also called p40 C199S; source: previously purified in our laboratory
T2 sequence (looked up): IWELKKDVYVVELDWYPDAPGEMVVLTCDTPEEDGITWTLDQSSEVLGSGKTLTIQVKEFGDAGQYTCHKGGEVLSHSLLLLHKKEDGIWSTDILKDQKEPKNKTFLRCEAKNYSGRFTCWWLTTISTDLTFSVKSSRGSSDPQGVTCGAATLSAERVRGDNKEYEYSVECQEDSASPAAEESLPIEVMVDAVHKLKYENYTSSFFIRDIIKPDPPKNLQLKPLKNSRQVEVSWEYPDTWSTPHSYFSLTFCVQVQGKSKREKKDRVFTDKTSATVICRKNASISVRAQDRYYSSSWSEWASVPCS

B1: murine IL-27α (natural protein, UniProt Q8K3I6 29-234, looked up)
chain: FPTDPLSLQELRREFTVSLYLARKLLSEVQGYVHSFAESRLPGVNLDLLPLGYHLPNVSLTFQAWHHLSDSERLCFLATTLRPFPAMLGGLGTQGTWTSSEREQLWAMRLDLRDLHRHLRFQVLAAGFKCSKEEEDKEEEEEEEEEEKKLPLGALGGPNQVSSQVSWPQLLYTYQLLHSLELVLSRAVRDLLLLSLPRRPGSAWDS
notes: mouse interleukin-27 subunit alpha (IL-27α/p28), bought recombinant protein; also called mIL-27α; source: bought: R&D Systems, 7430-ML-010
B2: IL-12α^C96S,His (natural protein, human, UniProt P29459 23-219, looked up)
chain: RNLPVATPDPGMFPCLHHSQNLLRAVSNMLQKARQTLEFYPCTSEEIDHEDITKDKTSTVEACLPLELTKNESSLNSRETSFITNGSCLASRKTSFMMALCLSSIYEDLKMYQVEFKTMNAKLLMDPKRQIFLDQNMLAVIDELMQALNFNSETVPQKSSLEEPDFYKTKIKLCILLHAFRIRAVTIDRVMSYLNAS
notes: human interleukin-12 subunit alpha (IL-12α/p35), UniProt P29459, with C96S (the cysteine of the interchain disulfide bond of IL-12); C-terminal TEV cleavage site followed by a GG-linker and His-tag; pcDNA3.4TOPO vector; also called IL-12αC96S with His-tag; source: ExpiCHO, co-transfected with IL-12β^C199S; not shown: His-tag, C-terminal, kept

Key:
[1] = molecular target: T1, EBI3 (purified from Expi293); assay: pull-down; called co-IP with purified proteins: 1 μg of one protein and an equimolar amount of the other in 200 μl PBS, 1 hour at room temperature; Ni-nitrilotriacetic acid beads 2 hours at 4°C; wash PBS with 20 mM imidazole, elution 500 mM imidazole; conditions: both partners purified
[2] = molecular target: T2, recombinant human IL-12β^C199S …; assay: as above; conditions: both partners purified

Binder | binding result [1] | binding result [2]
B1 | binds | –
B2 | – | binds
